# From patent US20260274985A1 (MYTHIC THERAPEUTICS, published 2026)
# Residue numbers refer to the chain shown, from its start.
# T1: TROP2 on TROP2-positive NCI-H1975 cells (human, UniProt P09758 27-323)
# T1 construct: Endogenous TROP2 of the human NCI-H1975 cell line; also called TACSTD2
# T1 sequence: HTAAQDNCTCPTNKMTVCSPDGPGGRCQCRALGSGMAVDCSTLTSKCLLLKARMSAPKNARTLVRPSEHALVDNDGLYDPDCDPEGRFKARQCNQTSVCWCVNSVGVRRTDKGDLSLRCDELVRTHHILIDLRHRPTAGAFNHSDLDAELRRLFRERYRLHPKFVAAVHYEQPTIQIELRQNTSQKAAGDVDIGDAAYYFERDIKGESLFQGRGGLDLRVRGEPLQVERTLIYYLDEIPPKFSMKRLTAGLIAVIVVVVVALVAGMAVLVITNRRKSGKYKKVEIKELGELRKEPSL
# T2: Human TROP2 Protein, His Tag, Acro Biosystems (human, UniProt P09758 27-274)
# T2 construct: Bought protein; not shown: His tag
# T2 sequence: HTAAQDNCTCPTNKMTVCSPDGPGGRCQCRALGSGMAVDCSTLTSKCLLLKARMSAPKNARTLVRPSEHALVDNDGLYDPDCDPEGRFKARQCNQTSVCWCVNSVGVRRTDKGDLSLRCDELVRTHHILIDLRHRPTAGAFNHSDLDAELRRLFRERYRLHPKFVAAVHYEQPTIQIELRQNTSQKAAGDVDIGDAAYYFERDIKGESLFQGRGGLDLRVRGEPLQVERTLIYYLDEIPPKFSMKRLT
# T3: Human TROP2 Protein, His Tag (Acro Biosystems) (human, UniProt P09758 27-274)
# T3 construct: not shown: His tag
# T3 sequence (looked up): T2 sequence
# T4: Human TROP2 Protein, His Tag (human, UniProt P09758 27-274)
# T4 construct: Bought protein; also called TACSTD2; not shown: His tag
# T4 sequence (looked up): T2 sequence
# T5: Human TROP2 Protein, His Tag (Acro Biosystems) (human, UniProt P09758 27-274)
# T5 construct: Soluble analyte of the Octet assay; also called TACSTD2; not shown: His tag
# T5 sequence (looked up): T2 sequence
# T6: Human TROP2 Protein, His Tag (Acro Biosystems) (human, UniProt P09758 27-274)
# T6 construct: also called TACSTD2; not shown: His tag
# T6 sequence (looked up): T2 sequence
# T7: Human TROP2 Protein, His Tag (Acro Biosystems) (human, UniProt P09758 27-274)
# T7 construct: Bought protein; also called TACSTD2; not shown: His tag
# T7 sequence: T2 sequence
# B1: MYT11566 (WT sacituzumab variable regions) (antibody, human IgG1, V domains shown)
# VH: QVQLQQSGSELKKPGASVKVSCKASGYTFTNYGMNWVKQAPGQGLKWMGWINTYTGEPTYTDDFKGRFAFSLDTSVSTAYLQISSLKADDTAVYFCARGGFGSSYWYFDVWGQGSLVTVSS
# VL: DIQLTQSPSSLSASVGDRVSITCKASQDVSIAVAWYQQKPGKAPKLLIYSASYRYTGVPDRFSGSGSGTDFTLTISSLQPEDFAVYYCQQHYITPLTFGAGTKVEIK
# notes: Human IgG1 heavy chain constant domain and Kappa light chain constant domain; also called Sacituzumab WT
# B2: MYT12406 (antibody, V domains shown)
# VH: QVQLVQSGAEVKKPGASVKVSCKASGYTFTTAGMQWVRQAPGQGLEWMGWINTHSGVPKYAEDFKGRVTISADTSTSTAYLQLSSLKSEDTAVYYCARSGFGSSYWYFDVWGQGTLVTVSS
# VL: B1 VL with L4M, S20T, I31T, A51H, D60S, Q89H, Y92H, A100Q, V104L
# notes: datopotamab VL 51, 89, 92 substituted
# B3: MYT11635 (WT datopotamab variable regions) (antibody, human IgG1, V domains shown)
# VH: B2 VH
# VL: B1 VL with L4M, S20T, I31T, D60S, A100Q, V104L
# notes: Human IgG1 heavy chain constant domain and Kappa light chain constant domain; also called Datopotamab WT
# B4: 112-DXd (antibody, IgG1, V domains shown)
# VH: B2 VH
# VL: B1 VL with L4M, S20T, I31T, D60S, A100Q, V104L
# modifications: maleimide based GGFG-DXd conjugated to hinge cysteines, average DAR of about 4
# B5: MYT11680 (antibody, V domains shown)
# VH: B2 VH
# VL: B1 VL with L4M, S20T, Q27H, I31T, D60S, A100Q, V104L
# notes: IgG from supernatant; His at LCV position 27; also called datopotamab variant L1 04
# B6: MYT13199 (antibody, V domains shown)
# VH: B1 VH with G66H
# VL: B1 VL with Y53H
# notes: Sacituzumab HC-LC pairing variant; IgG
# B7: MYT11678 (antibody, V domains shown)
# VH: B2 VH
# VL: B1 VL with L4M, S20T, A25H, I31T, D60S, A100Q, V104L
# notes: IgG from supernatant; His at LCV position 25; also called datopotamab variant L1 02
# B8: MYT13198 (antibody, V domains shown)
# VH: B1 VH with K65H
# VL: B1 VL with Y53H
# notes: as for B6
# B9: MYT12405 (antibody, V domains shown)
# VH: B2 VH
# VL: B1 VL with L4M, S20T, I31T, A51H, S52H, D60S, Y92H, A100Q, V104L
# notes: datopotamab VL 51, 52, 92 substituted
# B10: MYT13425 (antibody, human IgG1, V domains shown)
# VH: B1 VH with D62H
# VL: B1 VL with S30H, A51H, I93H
# notes: also called sacituzumab HC-LC pairing variant; Sacituzumab pH variant
# B11: MYT12407 (antibody, V domains shown)
# VH: B2 VH
# VL: B1 VL with L4M, S20T, I31T, S52H, D60S, Q89H, Y92H, A100Q, V104L
# notes: datopotamab VL 52, 89, 92 substituted
# B12: MYT13203 (antibody, V domains shown)
# VH: B1 VH with D62H
# VL: B1 VL with Q89H
# notes: as for B6
# B13: MYT11679 (antibody, V domains shown)
# VH: B2 VH
# VL: B1 VL with L4M, S20T, S26H, I31T, D60S, A100Q, V104L
# notes: IgG from supernatant; His at LCV position 26; also called datopotamab variant L1 03
# B14: MYT13251 (antibody, V domains shown)
# VH: B1 VH with D62H
# VL: B1 VL with S52H, I93H
# notes: Sacituzumab HC-LC pairing variant
# B15: MYT13250 (antibody, V domains shown)
# VH: B1 VH with Y60H
# VL: B1 VL with S52H, I93H
# notes: as for B14
# B16: MYT13187 (antibody, V domains shown)
# VH: B1 VH with D62H
# VL: B1 VL with S52H
# notes: as for B6
# B17: 170-DXd (antibody, IgG1, V domains shown)
# VH: QVQLQESGPGLVKPSETLSLTCTVSGGSISSYGVHWIRQPPGKGLEWIGVIWTSGVTDYNSALMGRVTISVDTSKNQFSLKLSSVTAADTAVYYCARDGDYDRYTMDYWGQGTLVTVSS
# VL: DIVMTQSPDSLAVSLGERATINCRASKSVSTSGYSYMHWYQQKPGQPPKLLIYLASNLHSGVPDRFSGSGSGTDFTLTISSLQAEDVAVYYCHHSRHLPYTFGQGTKLEIK
# modifications: maleimide based GGFG-DXd conjugated to hinge cysteines, average DAR of about 4
# B18: 169-DXd (antibody, IgG1, V domains shown)
# VH: B17 VH
# VL: B17 VL with H59E, H93Q, H97E
# modifications: maleimide based GGFG-DXd conjugated to hinge cysteines, average DAR of about 4
# B19: MYT12408 (hu7E6SVG variant, HCV substitutions at 33, 34) (antibody, V domains shown)
# VH: B17 VH with G33H, V34H
# VL: B17 VL with H59E, H93Q, H97E
# B20: MYT12409 (hu7E6SVG variant, HCV substitutions at 33, 51) (antibody, V domains shown)
# VH: B17 VH with G33H, I51H
# VL: B17 VL with H59E, H93Q, H97E
# Assays:
# [1] = molecular target: T1, TROP2 on TROP2-positive NCI-H1975 cells; experiment: binding to NCI-H1975 cells at pH 6.4, maximal MFI
# [2] = molecular target: T2, Human TROP2 Protein, His Tag, Acro …; experiment: Octet (BLI)
# [3] = molecular target: T3, Human TROP2 Protein, His Tag (Acro …); experiment: BLI (Octet)
# [4] = molecular target: T1, TROP2 on TROP2-positive NCI-H1975 cells; experiment: cell-based or functional assay
# [5] = molecular target: T1, TROP2 on TROP2-positive NCI-H1975 cells; experiment: cell-based or functional assay; remark: listed apart in the source
# [6] = molecular target: T4, Human TROP2 Protein, His Tag; experiment: BLI (Octet) [1/2]
# How it was run: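 Antibody variants from day-4 expression supernatants, diluted in 1×PBST pH 7.4 by expression level, captured on anti-human Fc tips. Association with 50 nM human TROP2-His in PBST pH 7.4 for 120 sec; dissociation in PBST pH 7.4 or pH 5.4 for 300 sec. Curves examined for koff at each pH versus parent antibody.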
# [7] = molecular target: T5, Human TROP2 Protein, His Tag (Acro …); experiment: BLI (Octet), IgG on anti-human Fc sensor, soluble TROP2; grade 2 = No change vs parent
# Description: After allowing for four days of protein expression, cell culture supernatants were collected, quantified by SDS-PAGE analysis (DNS), and the pH dependence of the variant was evaluated using biolayer interferometry (BLI) on an Octet RED 96e instrument. Briefly, cell culture supernatants were diluted based on qualitative expression level of the variant determined by visual examination of SDS-PAGE gels, 5 μL of cell culture supernatant was diluted into 195 μL of 1×PBST, pH 7.4 for high expressors, 25 μL of cell culture supernatant was diluted into 175 μL of 1×PBST, pH 7.4 for medium expressors and 100 μL of cell culture supernatant was diluted into 100 μL of 1×PBST, pH 7.4 for low expressors for loading onto the sensor tips. The resulting diluted supernatants were then captured on an anti-human Fc sensor (Forte Bio). A baseline was established using 1×PBST (50 mM Potassium Phosphate Buffer+150 mM NaCl+0.05% Tween 20) pH 7.4, and the sensor was associated with 50 nM of TROP2 (Human TROP2 Protein, His Tag, Acro Biosystems) in 1×PBST pH 7.4 for 120 sec to generate an association curve. In the dissociation phase, the antibody-antigen complex on the sensor was exposed to 1×PBST pH 7.4 or pH 5.4, for 300 sec. Association and dissociation phase curves were examined for the starting ABPC antibody (with no substitutions) and each corresponding antibody variant at pH 5.4 and pH 7.4 to inform on two criteria: a) enhanced dissociation (i.e., higher koff values) at pH 5.4 due to histidine or alanine substitution compared to the starting ABPC, (with no substitutions), and b) reduced dissociation at pH 7.4 (i.e., lower koff values) compared to pH 5.4 in the antibody variant itself and with the starting ABPC (with no substitutions). […] It was also noted that while some mutations obliterated TROP2 binding, others were tolerated with little or n change in TROP2 binding kinetics.
# [8] = molecular target: T1, TROP2 on TROP2-positive NCI-H1975 cells; experiment: cell-based or functional assay; remark: listed apart in the source
# [9] = molecular target: T6, Human TROP2 Protein, His Tag (Acro …); experiment: BLI (Octet) [1/2]
# [10] = molecular target: T7, Human TROP2 Protein, His Tag (Acro …); experiment: BLI (Octet)
binder,measurement,setting,value
B1,Max MFI (@ pH 6.4)-H1975,[1],29500 MFI
same,Kd,[2],0.6 nM
B2,binding result,[3],no binding (tested: 50 nM)
B3,Max MFI (@ pH 6.4)-H1975,[1],25900 MFI
same,Kd,[2],1.25 nM
same,Cytotox Fold over datopotamab (FOD),[4],1 fold over datopotamab
B4,% efficiency @ 100 nM ADC (cytotoxicity in NCI-H1975 cells),[5],-1.22%
B5,binding result,[6],binds
B6,binding result,[7],binds
B7,binding result,[6],binds
B8,binding result,[7],binds
B9,binding result,[3],no binding (tested: 50 nM)
B10,Max MFI (@ pH 6.4)-H1975,[1],11200 MFI
same,Kd,[2],3.99 nM
same,FOW H1975 (10 nM),[8],1.94 fold over parent antibody
same,Cytotox Fold over datopotamab (FOD),[4],1.39 fold over datopotamab
B11,binding result,[3],no binding (tested: 50 nM)
B12,binding result,[7],binds
B13,binding result,[6],binds
B14,binding result,[9],binds
B15,binding result,[9],binds
B16,binding result,[7],binds
B17,% efficiency @ 100 nM ADC (cytotoxicity in NCI-H1975 cells),[5],5.39%
B18,% efficiency @ 100 nM ADC (cytotoxicity in NCI-H1975 cells),[5],-3.5%
B19,binding result,[10],binds
B20,binding result,[10],binds
